Assay results taken from patent US10640556B2, “Anti amphiregulin antibodies, compositions comprising same and uses thereof” (Yeda Research and Development Co. Ltd., priority 2015, dated 2020).

T1: human AREG (Homo sapiens, UniProt P15514)
T1 sequence (P15514 101-198 limits assumed): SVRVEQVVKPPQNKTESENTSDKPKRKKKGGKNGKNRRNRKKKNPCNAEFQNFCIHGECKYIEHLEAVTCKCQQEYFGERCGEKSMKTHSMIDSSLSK


Tests used:
[1] = target: T2, EGFR (Homo sapiens, UniProt P00533); test: Receptor downregulation assay in MCAS cells; type: cell-based; parameters: endogenous in cells; host or cells: MCAS, MLS, H358, A549; conditions: ligand 10 ng/ml
Experimental: (§1) The cells were later washed and lysed, and the associated radioactivity was determined. […] The cells were later washed and lysed in 1 N NaOH. Cell-associated radioactivity was determined. […] Washed immunocomplexes, along with whole extracts, were immunoblotted with the indicated antibodies.
At the end of the incubation period, the cells were placed on ice, washed with ice cold medium and subjected to mild acid wash (0.2 M Na-acetate buffer, pH 4.5, and 0.5 M NaCl) for 2 minutes, followed by 2 washes in ice cold medium. […] Finally, cells were lysed in 1 N NaOH, and their radioactivity was determined.

[2] = target: T2, EGFR; test: Ligand-induced receptor ubiquitination assay (MCAS, MLS, H358, A549 cells); type: cell-based; parameters: endogenous in cells; host or cells: MCAS, MLS, H358, A549; conditions: 10 minutes, ligand 100 ng/mL; MCAS, MLS, H358, A549 cells
Experimental: as §1
For determination of ligand-induced receptor ubiquitination, cells were extracted in lysis buffer (50 mM HEPES pH 7.5, 150 mM NaCl, 10% glycerol, 1% Triton X-100, 1 mM EDTA, 1 mM EGTA, 10 mM NaF and 30 mM 3-glycerol phosphate) with freshly added 0.2 mM Na3VO4, a protease inhibitor cocktail and 2 mM N-ethylmaleimide (NEM). Twenty μL of protein G agarose beads and 1 μg of antibody were added to 500 μg of protein lysate. After a 2 hour incubation at 4° C., the immunoprecipitates were collected by centrifugation at 14,000 rpm at 4° C. for 1 minute. The supernatant was discarded and the pellet was washed thrice, prior to electrophoresis.

[3] = target: T1, human AREG; test: Antigenic determinant comparison of anti-AREG mAbs; type: binding; conditions: data not shown
[4] = system: EGFR; test: AREG-induced EGFR phosphorylation in HeLa cells (immunoblot); type: cell-based, human; conditions: AREG 100 ng/ml, mAb 0.1-50 μg/ml, FIG. 10A
Experimental: FIGS. 6A-6F illustrate AR30, an anti-AREG monoclonal antibody, that inhibits auto-phosphorylation of EGFR. FIG. 6A is a photograph of a Coomassie blue staining of an acrylamide gel showing a purified fraction of AREG isolated from bacteria and purified on a NiNTA column. The molecular weight marker lane indicates a 15 kilodalton band; FIG. 6B, cells were seeded in a 24 well plate, washed and incubated with increasing concentrations of the purified TRX-AREG fusion protein (8.5, 85, 850, 8500 ng/ml). […] Following a 10-min long incubation, the cells were lysed and cleared extracts immunoblotted (IB) with an anti-phosphotyrosine antibody (PY-99); FIG. 6C, 96 well plates were coated with the indicated ligands (0.1 μg/ml), and then incubated for 3 hours with three different mAbs specific to AREG. Thereafter, wells were incubated for two hours with an anti-mouse antibody conjugated to HRP, followed by a 30 minutes incubation with ATBS. […] Serum from non-immunized mice was used as a negative control; FIG. 6E, HeLa cells were pre-incubated with (or without) mAb AR30 (20 μg/mL) and increasing concentrations of AREG. Thereafter, whole cell lysates were immunoblotted (IB) using an antibody specific to the phosphorylated form of EGFR (tyrosine 1068) or an antibody to EGFR; and FIG. 6F, HeLa cells were incubated with (or without) AREG (100 ng/mL) in the presence of increasing concentrations of mAb AR30 (5, 10, 20 and 50 μg/mL). Thereafter, cells were lysed and cleared extracts immunoblotted (IB) using the indicated antibodies.
FIG. 10A illustrates that anti-AREG mAbs inhibit ligand-induced activation of EGFR. HeLa cells were incubated with (or without) AREG (100 ng/ml) in the presence of increasing concentrations of mAb AR30, mAb AR 37 or mAb AR558 (0.1, 0.2, 0.5, 0.75, 1.5, 3.5, 6.25, 12.5, 25 and 50 μg/ml). Thereafter, cells were lysed and cleared extracts immunoblotted (IB) using the indicated antibodies, including an antibody specific to the phosphorylated (active) for of EGFR (pEGFR).

[5] = system: Cal-27 human head and neck cancer cells; test: Cal-27 head and neck tumor xenograft in nude mice; type: in vivo; conditions: Cal-27 tumors, 300 μg per injection intraperitoneally twice a week
Experimental: Female nude mice were inoculated subcutaneously with Cal-27 human head and neck cancer cells (2×10^6). Once tumors became palpable (5-7 days) mice were randomized and intraperitoneally injected with saline (Control), or with anti-AR mAbs: AR30, AR37 or AR558 (each at 300 μg per injection). Mice were treated with mAbs twice a week and tumor volume was followed. Shown are averages and SD values from at least 5 mice per group.
To test the ability of anti-AREG antibodies to reduce growth of human tumor cells implanted in immunocompromised mice, Cal 27 tumor cells were used which were inoculated subcutaneously and randomized for treatment after tumors became palpable. […] Furthermore, studies testing pairs of two mAbs illustrate their enhanced anti-tumor activities (data not shown), this can be attributed to the fact that the mAbs bind to distinct antigenic determinants of amphiregulin.

[6] = system: MCF10A cells; test: MTS proliferation assay of MCF10A cells; type: cell-based, human; conditions: 72 h, absence or presence of AREG, relatively high mAb concentrations
Experimental: Proliferation assays using MTS were performed on MCF10A cells (1,000 cells per well). C ells were plated on the day before and treated for 72 h with the indicated mAbs (1, 5, 10, 20 or 50 ug/mL). Increasing concentrations of the indicated mAbs (either alone or in combination with AREG) were used in medium supplemented with 1% serum and AREG (either at 10 or 100 ng/mL).

Molecule	EGFR downregulation [1]	ubiquitination of EGFR [2]	antigenic determinant targeted [3]	AREG-induced phosphorylation of EGFR [4]	tumor growth [5]	inhibition of proliferation [6]
TGF-alpha: transforming growth factor alpha, high-affinity EGFR ligand	70-75%	strong ubiquitination				
AR558: anti-AREG monoclonal antibody from AREG knockout mice; heavy chain SEQ ID NO: 30, light chain SEQ ID NO: 46 (antibody, V domains shown, AR558 heavy chain IgG complete amino acids coding sequence; AR558 light chain (kappa) complete amino acids coding sequence) VH: EVQLQQSGAELVKPGASVKLSCTASGFNIKDTYMHWVKQRPEQGLEWIGRIDPANRSTKYDPKFQGKATITADTSSNTADLHLSSLTSEDTAVYYCARLYGDSVWYFDVWGAGTTVTVSSAKT VL: QIVLTQSPAILSASPGEKVTMTCRAGSSVNYIHWYQQKPGSSPKPWIYATSNLASGVPARFSGSGSGTSYSLTISRVEAEDAATYYCQQWSGYPPMLTFGAGTKLELKR			engages a different determinant of human AREG	low concentrations of the antibodies were sufficient for blocking	exceeded the activity of either antibody	Moderate inhibition
